Measured values taken from the supplement of paper PMC9732359.
± gives the uncertainty stated by the source.

Assay: protein stability index of a GFP-peptide fusion (yeast GPS) (PSI 1-4); higher = more stable; sorted into four equal gates, so the index is relative within each strain
Summary of the method: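 Tiled yeast protein peptides of 17 residues were each joined downstream of GFP, on plasmids that also express Cherry. The pooled library was maintained in yeast, and mid-log cultures in leucine-free medium were sorted into four equal gates on the GFP/Cherry ratio. Plasmids from every gate were amplified by PCR and sequenced on Illumina, with barcodes linking reads to strains. The protein stability index of a peptide is its gate-number-weighted read frequency summed over the gates.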

Sequence	protein stability index (doa10∆)	protein stability index (pdr5∆)	protein stability index (san1∆)	protein stability index (ubr1∆)
GKETIARVTGGMKVKAD [RPS14B]	1.42 ± 0.1	1.24 ± 0.096	1.85 ± 0.11	2.6 ± 0.11
GKGRQSAKAELEKLVDH [PRE10]	1.82 ± 0.099	2.19 ± 0.072	1.59 ± 0.28	1.14 ± 0.088
GKHSIGLIWYLLAREVL [RPS0A]	1.59 ± 0.073	1.87 ± 0.064	1.65 ± 0.1	2.06 ± 0.054
GKKRFRVVTVDGKLIDI [SMC4]	–	3.49 ± 0.14	3.31 ± 0.076	3.55 ± 0.18
GKKWFEVSQFLIENGAS [NAS6]	1.91 ± 0.084	1.55 ± 0.061	1.4 ± 0.1	1.49 ± 0.074
GKLKRCSRCGSVTRAGN [SIN4]	–	–	–	3.34 ± 0.16
GKPTVNKKPKNKKKGRK [SRP72]	3.42 ± 0.084	3.29 ± 0.1	2.93 ± 0.1	3.24 ± 0.092
GKPVSLPLLYNFNPDNG [FAS1]	2.93 ± 0.095	3.27 ± 0.1	2.62 ± 0.075	2.92 ± 0.076
GKYTLGYKSTVKSLRQG [RPL30]	2.25 ± 0.072	2.34 ± 0.049	2.54 ± 0.09	2.47 ± 0.048
GLFPFESYKPSVQLPDM [SWI3]	3.05 ± 0.09	2.88 ± 0.081	2.96 ± 0.067	2.81 ± 0.07
GLFQVLHNFESVAPTKQ [NUT1]	2.99 ± 0.075	2.87 ± 0.075	2.75 ± 0.052	3.12 ± 0.035
GLGYVFEFQYLTIGVKF [SRB5]	1.15 ± 0.088	1.53 ± 0.1	1.08 ± 0.15	1.31 ± 0.087
GLHSSEYKLRSLTLSFI [ECM29]	2.18 ± 0.057	2.21 ± 0.061	2.41 ± 0.066	2.46 ± 0.049
GLLKRGDTVRILDTSQS [SNU114]	3.08 ± 0.084	3.21 ± 0.1	3.15 ± 0.054	2.86 ± 0.1
GLMLGEFVDDYTVNVVD [RPN11]	3.32 ± 0.13	3.26 ± 0.1	3.13 ± 0.14	3.09 ± 0.076
GLNAKQLYKARMSIKLL [POP1]	2.13 ± 0.082	1.73 ± 0.08	2.41 ± 0.06	2.37 ± 0.029
GLNDLVEQYKFRETTHS [BRR2]	3.16 ± 0.091	3.03 ± 0.074	2.84 ± 0.082	3.1 ± 0.061
GLNNDFLFQNINFERID [GRR1]	2.09 ± 0.05	2.16 ± 0.057	2.19 ± 0.055	2.12 ± 0.042
GLSPKKVGEDIAKATKE [RPL12A]	3.03 ± 0.16	3.22 ± 0.14	3.13 ± 0.18	2.77 ± 0.24
GLVCADTFRAGAFDQLK [SRP54]	3.14 ± 0.1	3.54 ± 0.1	3.34 ± 0.11	3.25 ± 0.084
